Paper PMC4762649, “Tel1 and Rif2 Regulate MRX Functions in End-Tethering and Repair of DNA Double-Strand Breaks” (PLoS Biology, 2016)

T1: Rad50-V1269M (S. cerevisiae, UniProt P12753 1-1312, V1269M)
T1 construct: Allele isolated after ethyl methanesulfonate mutagenesis; also called Rad50-V1269M mutant; purified Rad50-V1269M; source: overexpressed in yeast, purified (procedure devised for the wild-type protein)
T1 sequence (looked up): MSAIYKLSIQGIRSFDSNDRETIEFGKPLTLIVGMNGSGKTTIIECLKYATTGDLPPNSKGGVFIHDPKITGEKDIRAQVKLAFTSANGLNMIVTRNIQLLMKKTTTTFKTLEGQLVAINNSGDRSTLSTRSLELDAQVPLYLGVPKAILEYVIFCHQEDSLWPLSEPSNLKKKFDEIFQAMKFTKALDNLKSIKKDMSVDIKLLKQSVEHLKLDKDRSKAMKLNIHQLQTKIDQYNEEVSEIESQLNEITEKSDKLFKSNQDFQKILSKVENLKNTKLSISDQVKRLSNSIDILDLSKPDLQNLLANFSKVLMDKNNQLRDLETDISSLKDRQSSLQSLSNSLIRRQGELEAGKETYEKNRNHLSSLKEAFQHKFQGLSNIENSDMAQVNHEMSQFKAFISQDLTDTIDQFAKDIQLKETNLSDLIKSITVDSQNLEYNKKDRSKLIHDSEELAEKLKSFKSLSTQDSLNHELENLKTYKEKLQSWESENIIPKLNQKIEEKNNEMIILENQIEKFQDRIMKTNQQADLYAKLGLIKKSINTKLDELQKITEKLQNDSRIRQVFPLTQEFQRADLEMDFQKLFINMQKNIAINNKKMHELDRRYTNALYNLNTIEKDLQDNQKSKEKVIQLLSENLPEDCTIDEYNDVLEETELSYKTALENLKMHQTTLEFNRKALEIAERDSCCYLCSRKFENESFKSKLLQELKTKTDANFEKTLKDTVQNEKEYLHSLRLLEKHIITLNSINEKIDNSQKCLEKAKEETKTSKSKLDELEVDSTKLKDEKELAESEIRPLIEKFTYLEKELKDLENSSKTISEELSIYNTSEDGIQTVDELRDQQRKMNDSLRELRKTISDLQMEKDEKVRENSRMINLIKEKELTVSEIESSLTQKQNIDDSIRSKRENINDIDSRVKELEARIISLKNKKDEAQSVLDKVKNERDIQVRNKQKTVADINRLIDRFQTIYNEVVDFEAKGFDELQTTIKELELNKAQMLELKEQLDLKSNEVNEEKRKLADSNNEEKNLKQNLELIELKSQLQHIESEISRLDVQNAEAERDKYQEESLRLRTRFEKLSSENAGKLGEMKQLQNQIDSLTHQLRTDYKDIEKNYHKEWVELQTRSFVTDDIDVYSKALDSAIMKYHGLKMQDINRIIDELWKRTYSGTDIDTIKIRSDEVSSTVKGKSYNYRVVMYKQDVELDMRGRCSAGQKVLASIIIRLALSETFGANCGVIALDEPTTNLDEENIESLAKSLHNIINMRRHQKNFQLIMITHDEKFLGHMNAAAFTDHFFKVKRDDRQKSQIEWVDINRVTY

T2: Rad50 (S. cerevisiae, UniProt P12753 1-1312)
T2 construct: Rad50, S. cerevisiae, subunit of the MRX complex; also called wild-type Rad50; purified Rad50; source: overexpressed in yeast, purified
T2 sequence (looked up): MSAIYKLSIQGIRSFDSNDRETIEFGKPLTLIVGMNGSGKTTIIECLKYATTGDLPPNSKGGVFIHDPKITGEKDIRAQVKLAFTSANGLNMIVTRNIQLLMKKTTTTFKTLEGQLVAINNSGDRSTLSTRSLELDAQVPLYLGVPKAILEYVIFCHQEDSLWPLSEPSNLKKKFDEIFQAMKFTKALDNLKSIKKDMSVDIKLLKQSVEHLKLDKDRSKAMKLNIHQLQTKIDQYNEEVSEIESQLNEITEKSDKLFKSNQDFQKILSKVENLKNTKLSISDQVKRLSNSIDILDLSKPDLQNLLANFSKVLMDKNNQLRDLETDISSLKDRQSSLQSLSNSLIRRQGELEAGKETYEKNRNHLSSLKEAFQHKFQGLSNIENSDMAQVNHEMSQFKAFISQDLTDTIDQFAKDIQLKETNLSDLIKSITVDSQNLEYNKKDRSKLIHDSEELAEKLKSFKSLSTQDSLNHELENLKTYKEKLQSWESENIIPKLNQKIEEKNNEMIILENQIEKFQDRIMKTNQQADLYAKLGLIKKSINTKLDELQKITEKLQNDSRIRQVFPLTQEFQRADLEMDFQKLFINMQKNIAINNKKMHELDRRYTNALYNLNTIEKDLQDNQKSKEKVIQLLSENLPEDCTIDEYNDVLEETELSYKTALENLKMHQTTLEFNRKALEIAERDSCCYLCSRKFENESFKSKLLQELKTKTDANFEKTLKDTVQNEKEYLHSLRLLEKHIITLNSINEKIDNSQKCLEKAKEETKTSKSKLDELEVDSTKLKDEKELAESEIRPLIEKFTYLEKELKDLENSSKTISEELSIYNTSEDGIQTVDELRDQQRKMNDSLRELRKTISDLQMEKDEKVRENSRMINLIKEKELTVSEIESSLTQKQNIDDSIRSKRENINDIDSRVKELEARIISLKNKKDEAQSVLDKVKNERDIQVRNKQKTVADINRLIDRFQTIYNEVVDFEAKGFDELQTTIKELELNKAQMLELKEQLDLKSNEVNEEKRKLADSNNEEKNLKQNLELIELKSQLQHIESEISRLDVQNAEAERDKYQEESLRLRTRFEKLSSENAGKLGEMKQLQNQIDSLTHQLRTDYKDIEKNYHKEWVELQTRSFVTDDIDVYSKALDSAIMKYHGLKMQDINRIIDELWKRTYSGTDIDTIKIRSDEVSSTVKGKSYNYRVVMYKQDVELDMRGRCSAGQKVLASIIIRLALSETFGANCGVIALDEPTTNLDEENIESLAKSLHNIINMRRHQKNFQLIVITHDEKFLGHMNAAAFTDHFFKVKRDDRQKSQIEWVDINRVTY


Legend:
Conditions in all cases: both partners purified
Rad50-V1269M = molecular target: T1, Rad50-V1269M; test: SEC; Rad50 (or Rad50-V1269M), Mre11 and Xrs2 incubated together 5 h on ice; assembled complex separated from unassembled proteins on a Sephacryl S-400 gel filtration column; 0-4°C
Rad50 = molecular target: T2, Rad50; test: as above
[1] = molecular target: T3, MR^V1269MX complex (Mre11-Rad50-V1269M-Xrs2) (S. cerevisiae, UniProt P32829 1-692; P12753 1-1312; P33301 1-854, V1269M); test: pull-down; Flag-tagged Tel1 (50 ng) incubated with MR^V1269MX (100 ng) in the absence or presence of Rif2 (100 ng); captured on anti-Flag resin; immunoblotting
T3 construct: Mre11, S. cerevisiae; as m3; Rad50, S. cerevisiae, with V1269M; as m2; Xrs2, S. cerevisiae; as m4; also called mutant MRX complex; source: subunits overexpressed in yeast and purified, assembled and separated by gel filtration; copies: + +

binding result (Rad50-V1269M) | binding result (Rad50) | binding result [1] | Binder
binds |  |  | Mre11 (natural protein, S. cerevisiae, UniProt P32829 1-692, looked up, Mre11, S. cerevisiae, subunit of the MRX complex; also called purified Mre11; source: overexpressed in yeast, purified) MDYPDPDTIRILITTDNHVGYNENDPITGDDSWKTFHEVMMLAKNNNVDMVVQSGDLFHVNKPSKKSLYQVLKTLRLCCMGDKPCELELLSDPSQVFHYDEFTNVNYEDPNFNISIPVFGISGNHDDASGDSLLCPMDILHATGLINHFGKVIESDKIKVVPLLFQKGSTKLALYGLAAVRDERLFRTFKDGGVTFEVPTMREGEWFNLMCVHQNHTGHTNTAFLPEQFLPDFLDMVIWGHEHECIPNLVHNPIKNFDVLQPGSSVATSLCEAEAQPKYVFILDIKYGEAPKMTPIPLETIRTFKMKSISLQDVPHLRPHDKDATSKYLIEQVEEMIRDANEETKQKLADDGEGDMVAELPKPLIRLRVDYSAPSNTQSPIDYQVENPRRFSNRFVGRVANGNNVVQFYKKRSPVTRSKKSGINGTSISDRDVEKLFSESGGELEVQTLVNDLLNKMQLSLLPEVGLNEAVKKFVDKDEKTALKEFISHEISNEVGILSTNEEFLRTDDAEEMKALIKQVKRANSVRPTPPKENDETNFAFNGNGLDSFRSSNREVRTGSPDITQSHVDNESRITHISQAESSKPTSKPKRVRTATKKKIPAFSDSTVISDAENELGDNNDAQDDVDIDENDIIMVSTDEEDASYGLLNGRKTKTKTRPAASTKTASRRGKGRASRTPKTDILGSLLAKKRK
binds | binds |  | Xrs2 (natural protein, S. cerevisiae, UniProt P33301 1-854, looked up, Xrs2, S. cerevisiae, subunit of the MRX complex; also called purified Xrs2; source: overexpressed in yeast, purified) MWVVRYQNTLEDGSISFISCCLQAFKTYSIGRSSKNPLIIKNDKSISRQHITFKWEINNSSDLKHSSLCLVNKGKLTSLNKKFMKVGETFTINASDVLKSTIIELGTTPIRIEFEWINEVWNIPPHLTQFRTMLSEYGISTEISINDIPANLMISDYPKSEDNSIRELYALVSTIPMKKSRFLMELCNTLLPTSKTNLKFDEMWNDMISNPEYNVFDFDPNILLSKFMRLNNIRVLTTIKSEPRLSSLLRTFNINLFAFDNIDSLYKYVDSLEASTEYLILTTTDKKENGKILCTIKTMLTSIIDGTLSAVINMKGASSRTLDNGKFDQISEGMSTILKTSRAPEVEASPVVSKKRKLNRRRVLPLDSLDFFAGGLSTKTLSENRSLTDAKRLNCGAESKTVISSPNIAEADEKHAPFLQNALKPTEDIGKKSGHSSPGAIIVSSPNLGTVNTSEDSLDKSLQSHKLPQPSLPEVAGIGSQTISSNSADYETAAVNSMDDAEVTKNFRVNHHQNIEQPSKNIRKLSNYSREISSPLQENCKSPVKELSIKEKSGTPHAFVEAIQETKNREVKRVKSTIVELKDEELSEEAINQLKNLAIVEPSNNLLRKSFDSEGNKTSRTTEKWENSLMEPEWHKRKNFKTFVKVRPKSKAHKEEGKNNTQSSDFIRNAAFLITRNYVPLKKYSKKDTTTKWGTEENEDMFALTEMERFGSNTFMSDNINSNTIQKRSQALNRFTNEDSSNEGEEDSFSFSRCSGTAASVQPLKNKIFITDEDDLGDIDDKSDRLNHRENNRNLFVVKEMNLRPNLSEECSKQSRHSRSATSRSRGSFGASNNGDGDDDDDDGPKFTFKRRKG
 |  | binds | (His)6-tagged Rif2 (natural protein, S. cerevisiae, UniProt Q06208 1-395, looked up, Rif2, S. cerevisiae; expressed from pET-Rif2 (gift from K. Sugimoto); No removal of the tag is described; the final preparation is called (His)6-Rif2; also called (His)6-Rif2; purified Rif2; source: E. coli BL21 Rosetta, purified (Ni-NTA, SP Sepharose, Mono S, Superdex 200)) MEHVDSDFAPIRRSKKVVDSDKIVKAISDDLEQKNFTVLRKLNLVPIKKSVSSPKVCKPSPVKERVDHVFYQKFKSMALQELGTNYLSISYVPSLSKFLSKNLRSMKNCIVFFDKVEHIHQYAGIDRAVSETLSLVDINVVIIEMNDYLMKEGIQSSKSKECIESMGQASYSGQLDFEASEKPSNHTSDLMMMVMRKINNDESIDHIVYFKFEQLDKLSTSTIIEPSKLTEFINVLSVLEKSNNIAFKVLIYSNNVSISSLLSTSLKKKLNTKYTVFEMPILTCAQEQEYLKKMIKFTFDSGSKLLQSYNSLVTCQLNNKESNLAIFFEFLKVFPHPFTYLFNAYTEIIVQSRTFDELLDKIRNRLTIKNYPHSAYNFKKNQRLPLKLTRKVHDR
